Data published in patent US7704737B2, “Oligodendrocyte production from multipotent neural stem cells” (Stem Cell Therapeutics Inc., priority 2002, dated 2010).
Entries after “also recorded” stand apart in the source; their conditions may differ.

Tests used:
[1] = system: differentiating neural stem cells; assay: Survival Assay: factor added or removed at different times, MBP staining; assay type: cell-based, mouse; parameters: MBP + cells after 5DIV: unit not given here; settings: for dependence of oligodendrocyte numbers on length of time the factor is present: summary of Table 2, MBP after 5 DIV
Experimental: In the second line of experiments, GM-CSF ,as given to differentiating neural stem cells at different times. Thus, neural stem cell culture was placed in differentiation media as described in Example 1, and GM-CSF was added after 24 or 48 hours, or added in the beginning but removed after 24 or 48 hours. Similarly, T3 was added or removed in the same manner in parallel experiments. The cells were fixed after 5 days in vitro and immunostained with the mature oligodendrocyte marker MBP.

[2] = system: EGF-responsive neural stem cells; assay: secondary neurosphere numbers (self-expansion); assay type: cell-based, mouse; settings: FIG. 5; for number of secondary neurospheres: factor in secondary neurosphere media, primary spheres grown in EGF; for formation of secondary spheres: factor included in the media for primary neurospheres
Experimental: Furthermore, the effect of GM-CSF on self-expansion, proliferation of secondary neurospheres derived from primary neurospheres, was also assessed. Three media were used in the preparation of primary spheres: MHM plus EGF, MHM plus EGF plus GM-CSF and MHM plus EGF plus T3. The primary, spheres were dissociated, plated in 96-well plates at a concentration of 1000 cells/well in 200μL media per well, and allowed to form secondary neurospheres for a week. The media for secondary cultures consisted of MHM plus EGF alone, MHM plus GM-CSF or T3 alone, or MHM plus EGF supplemented with GM-CSF or T3. The number of secondary spheres in each well was then counted, calculated as percentage of control (EGF to EGF).

[3] = system: maturing oligodendrocytes; assay: dying maturing oligodendrocytes (GalC+, TUNEL+ cells); assay type: cell-based, mouse; settings: 1, 3 or 5 days in differentiation media, FIG. 2
Experimental: The survival effects of GM-CSF on oligodendrocytes were examined with two lines of experiments. In the first line of experiments, neural stem cells were cultured as described in Example 1 in the presence or absence of GM-CSF or T3, and were fixed after 1, 3 or 5 days of culture in differentiation media. The fixed cells were immunostained for the maturing oligodendrocyte marker GalC and TUNEL, which is a marker of dying cells. The numbers of dicing, maturing oligodendrocytes (GalC+, TUNEL+cells) were then counted and their percentage in total GalC+cells are shown in FIG. 2.

[4] = system: E14 mouse ganglionic eminence cells; assay: primary neurosphere numbers; assay type: cell-based; settings: MHM plus EGF plus factor, 20 ng/ml, 1 week, FIG. 4
Experimental: The effect of GM-CSF on primary neurosphere numbers was also examined by growing cells from E14 mouse ganglionic eminence in MHM plus EGF, MHM plus EGF plus GM-CSF, or MHM plus EGF plus T3, all at concentrations of 20 ng/ml. Thus, E14 mouse ganglionic eminence cells were dissociated and plated in 96well plates at a density of 10,000 cells/ml in 200 μl of media per well, and allowed to form primary neurospheres for a week. The number of primary spheres in each well as then counted and the aforementioned statistical analysis as performed.

[5] = system: E14 ganglionic eminence cells; assay: total cell number of primary neural stem cell culture; assay type: cell-based, mouse; settings: MHM plus EGF plus factor, 1 week, versus MHM plus EGF, FIG. 3
Experimental: To assess the effect of GM-CSF on proliferation of neural stem cells, the number of cells generated in neurosphere cultures, prepared according to Example 1, was counted when grown for 1 week in various culture media. Thus, E14 ganglionic eminence cells were grown at a density of 200,000 cells/ml in 40 ml of media for 1 week. The media were MHM plus EGF, MHM plus EGF and GM-CSF, or MHM plus EGF and T3. Spheres were then collected, dissociated and cells were counted with a hemacytometer. The cell numbers were calculated as percentages of the control (MHM plus EGF).

neural stem cells [6] = assay: fate determination analysis (MBP+ and β-tubulin+ cells); assay type: cell-based, mouse; settings: primary spheres generated in EGF plus factor, differentiated 5 days, FIG. 6
Experimental: To determine if the presence of GM-CSF during primary neurosphere formation impacts fate determination of neural stem cells, primary neurospheres were generated in either EGF alone, EGF plus GM-CSF, or EGF plus T3 as described in Example 3. The primary spheres were then dissociated and plated on poly-L-ornithine coated coverslips in 24-well plates at a density of 200,000 cells/well in 1 ml of MHM per well, and allowed to differentiate for 5 days. At the end the differentiation period, the cells were fixed with 4% paraformaldehyde and immunostained for the mature oligodendrocyte marker MBP, the neuronal marker β-tubulin, and Hoechst. The total number of live cells, evidenced by Hoechst stain, were counted as well as the immunostained cells.

neural stem cells [7] = assay: rapid differentiation protocol of neural stem cells, immunostaining for O4, GalC and MBP; assay type: cell-based, mouse; settings: for % positive cells, GalC / % positive cells, MBP / % positive cells, O4: 20 ng/ml factor in MHM
Experimental: To determine the effect of GM-CSF on neural stem cell differentiation, a culture of neural stein cells was prepared from mouse embryos and subjected to a rapid differentiation protocol. Embryonic Day 14 (E14) mouse ganglionic eminence was dissected and grown in media hormone mix (MHM) plus 20 ng/ml epidermal growth factor (EGF) for one week to generate primary neurospheres. The composition of MHM was as follows: • DMEM/F12 (1:1) • glucose (0.6%) • glutamine (2 mM) • sodium bicarbonate ([…]) • HEPES (5 mM) • insulin (25 μg/ml • transferrin (100 μg/ml) • progesterone (20 nM) • putrescine (60 μM) • selenium chloride (30 nM)
Primary neurospheres were then dissociated and plated on poly-L-ornithine coated coverslips in 24-well plates at a density of 200,000 cells/ml in 1 ml of MHM per well. Cells were allowed to differentiate in the absence or presence of 20 ng/ml GM-CSF (murine recombinant GM-CSF, Peprotech) in MHM or 20 ng/ml of triiodothyronine (T3, Sigma) in MHM, or in a combination of both GM-CSF and T3. T3 is a known oligodendrocyte differentiation factor, which was used to compare GM-CSF in these experiments.
After 1, 3 or 5 days, the cells were fixed with 4% paraformaldehyde. […] After staining, the numbers of O4-positive, GalC-positive and MBP-positive cells were counted. The total number of cells were determined using Hoechst staining and live nuclei morphology under 40× magnification. This experiment was performed four times, and 10 non-overlapping fields per coverslip were counted each time. Statistical analyses of the results were performed using Anova with a Tukey-Honest post-hocs analysis.

GM-CSF = molecular target: T1, GM-CSF (Mus musculus, UniProt P01587); assay: rapid differentiation protocol with GM-CSF with or without soluble GM-CSF receptor alpha; assay type: cell-based; settings: 100-fold excess of sGMRa, 5 days in vitro, FIG. 1
T1 construct: purchased Peprotech
T1 sequence (P01587 18-141): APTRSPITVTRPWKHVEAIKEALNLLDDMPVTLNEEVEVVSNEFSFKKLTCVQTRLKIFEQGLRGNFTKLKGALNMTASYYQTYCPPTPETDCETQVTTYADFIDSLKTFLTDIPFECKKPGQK
Experimental: A rapid differentiation protocol was performed, as described above, in the absence or presence of GM-CSF, with or without a 100-fold excess of sGMRa. After 5 days in vitro, the cells were fixed, immunostained with the mature oligodendrocyte marker MBP and counted as previously described.

[8] = McLay et al., 1997; cited from earlier work
[9] = immature oligodendrocyte marker O4, 1 DIV
[10] = mature oligodendrocyte marker MBP, 1 DIV
[11] = maturing oligodendrocyte marker GalC, 1 DIV

Row | Molecule | MBP + cells after 5DIV ([1]; factor added after 24 hours) | MBP + cells after 5DIV ([1]; factor added after 48 hours) | MBP + cells after 5DIV ([1]; factor present for 5 DIV) | MBP + cells after 5DIV ([1]; factor removed after 24 hours) | MBP + cells after 5DIV ([1]; factor removed after 48 hours) | dependence of oligodendrocyte numbers on length of time the factor is present [1] | number of secondary neurospheres [2] | formation of secondary spheres [2] | number of dying GalC+ cells (GalC+, TUNEL+ in total GalC+ cells) [3] | ability of neural stem cells to form primary neurospheres [4] | total cell number in the neural stem cell culture [5] | number of mature oligodendrocytes (MBP+ cells) (neural stem cells [6]) | number of neurons (β-tubulin+ cells) (neural stem cells [6]) | % positive cells, GalC (neural stem cells [7]; GalC, 3 DIV) | % positive cells, GalC (neural stem cells [7]; GalC, 5 DIV) | % positive cells, MBP (neural stem cells [7]; MBP, 3 DIV) | % positive cells, MBP (neural stem cells [7]; MBP, 5 DIV) | % positive cells, O4 (neural stem cells [7]; O4, 3 DIV) | % positive cells, O4 (neural stem cells [7]; O4, 5 DIV) | % positive cells, O4 (neural stem cells [7]; [9]) | also measured
1 | N[C@@H](Cc1cc(I)c(Oc2ccc(O)c(I)c2)c(I)c1)C(=O)O [T3, triiodothyronine, reference compound] | 14.8 ± 1.5 | 12.0 ± 1.1 | 13.9 ± 1.1 | 15.5 ± 1.1 | 13.8 ± 1.1 | did not chance regardless of the length of time | decreased | detrimental | only minor survival effects, if any | neither GM-CSF nor T3 have significant effects | reduces | increased | decreased | 15.3 ± 1.5 % | 11.1 ± 0.9 % | 13.9 ± 1.1 % | 17.2 ± 1.6 % | 35.9 ± 1.7 % | 19.9 ± 1.5 % | 18.2 ± 1.2 % | % positive cells, MBP (neural stem cells [7]; [10]): 1.6 ± 0.4%; % positive cells, GalC (neural stem cells [7]; [11]): 8.0 ± 0.8 %
2 | sGMRa: GM-CSF receptor alpha (sGMRa), a soluble factor that binds GM-CSF (protein, UniProt P15509 23-320, looked up, extracellular domain) extracellular domain: EKSDLRTVAPASSLNVRFDSRTMNLSWDCQENTTFSKCFLTDKKNRVVEPRLSNNECSCTFREICLHEGVTFEVHVNTSQRGFQQKLLYPNSGREGTAAQNFSCFIYNADLMNCTWARGPTAPRDVQYFLYIRNSKRRREIRCPYYIQDSGTHVGCHLDNLSGLTSRNYFLVNGTSREIGIQFFDSLLDTKKIERFNPPSNVTVRCNTTHCLVRWKQPRTYQKLSYLDFQYQLDVHRKNTQPGTENLLINVSGDLENRYNFPSSEPRAKHSVKIRAADVRILNWSSWSEAIEFGSDDG | – | – | – | – | – | – | – | – | – | – | – | – | – | – | – | – | – | – | – | – | effect of GM-CSF on MBP+ cells (GM-CSF): specifically inhibited
3 | GM-CSF: murine recombinant GM-CSF, Peprotech (protein, UniProt P01587 18-141, looked up) Granulocyte-macrophage …: APTRSPITVTRPWKHVEAIKEALNLLDDMPVTLNEEVEVVSNEFSFKKLTCVQTRLKIFEQGLRGNFTKLKGALNMTASYYQTYCPPTPETDCETQVTTYADFIDSLKTFLTDIPFECKKPGQK | 8.1 ± 0.9 | 3.9 ± 0.6 | 8.0 ± 0.8 | 5.4 ± 1.0 | 9.7 ± 1.0 | required for an extended period of time | does not significantly affect | detrimental | significantly reduced | neither GM-CSF nor T3 have significant effects | slightly increased | increased | decreased | 7.4 ± 0.8% | 7.9 ± 1.0 % | 8.1 ± 0.9 % | 12.2 ± 1.3 % | 25.7 ± 1.5% | 9.6 ± 1.0% | 16.6 ± 1.2 % | crossing the blood-brain barrier [8]: capable of crossing the blood-brain barrier; percentage of oligodendrocytes produced from neural stem cells (neural stem cells [7]; every stage of oligodendrocyte development, versus control): significantly increased; also recorded: increased by several folds; % positive cells, MBP (neural stem cells [7]; [10]): 1.2 ± 0.3%; % positive cells, GalC (neural stem cells [7]; [11]): 4.1 ± 0.6%
